Source: US20050148514A1, “Method and composition for treatment of angiogenesis” (priority 2003, published 2005)
Where no end group is shown, it is not given here.

Target: T1, VEGFR-2 (Homo sapiens, UniProt P35968)
T1 construct: host or cells: HUVEC
Experiment: VEGF-induced VEGFR-2 phosphorylation in HUVEC (immunoprecipitation, western blot)
Format: cell-based
Method: Cell culture. Human umbilical vein endothelial cells (HUVEC) and pulmonary aortic smooth muscle cells (PASMC) were obtained from Clonetics and maintained in endothelial cell basal medium-2, (EBM-2; Clonetics) and smooth muscle medium-2 (SmGM-2; Clonetics), respectively. Cells were cultured at 37° C. under a humidified atmosphere containing 5% CO2. For experimental purposes, cells were plated in 8 100-mm plastic dishes at 5,000 cells/cm^2 and were grown to confluence before overnight serum starvation. Cells were treated with vehicle or with a PCK3145 derivative diluted in 0.1 N NaOH, and stimulated with 50 ng/ml VEGF, PDGF or with 1 μM S1P.
Immunoprecipitation and immunoblotting procedures. After treatment, cells were washed once with phosphate-buffered saline (PBS) containing 1 mM sodium orthovanadate and were incubated in the same medium for 1 h at 4° C. The cells were solubilized on ice in lysis buffer (150 mM NaCl, 10 mM Tris-HCl, pH 7.4, 1 mM EDTA, 1 mM EGTA, 0.5% Nonidet P-40, 1% Triton X-100) containing 1 mM sodium orthovanadate. The cells were then scraped from the culture dishes and the resulting lysates were clarified by centrifugation at 10,000 g for 10 min. Protein concentrations were determined using the micro bicinchoninic acid method. For immunoprecipitation studies, lysates were clarified by a 1 h incubation at 4° C. with a mixture of Protein A/Protein G Sepharose beads. After removal of the Sepharose beads by low-speed centrifugation, identical amounts of protein (200 μg) from each sample were transferred to fresh tubes and incubated in lysis buffer overnight at 4° C. in the presence of 2 μg/ml of specific antibodies. […]
The multifunctionality of VEGF at the cellular level results from its ability to initiate a diverse, complex and integrated network of signaling pathways via its major receptor, VEGFR-2. […] After each treatment, equal amounts of protein were immunoprecipitated with anti-VEGFR-2 polyclonal antibodies and analysed by Western blotting.

T1 sequence (P35968 20-1356): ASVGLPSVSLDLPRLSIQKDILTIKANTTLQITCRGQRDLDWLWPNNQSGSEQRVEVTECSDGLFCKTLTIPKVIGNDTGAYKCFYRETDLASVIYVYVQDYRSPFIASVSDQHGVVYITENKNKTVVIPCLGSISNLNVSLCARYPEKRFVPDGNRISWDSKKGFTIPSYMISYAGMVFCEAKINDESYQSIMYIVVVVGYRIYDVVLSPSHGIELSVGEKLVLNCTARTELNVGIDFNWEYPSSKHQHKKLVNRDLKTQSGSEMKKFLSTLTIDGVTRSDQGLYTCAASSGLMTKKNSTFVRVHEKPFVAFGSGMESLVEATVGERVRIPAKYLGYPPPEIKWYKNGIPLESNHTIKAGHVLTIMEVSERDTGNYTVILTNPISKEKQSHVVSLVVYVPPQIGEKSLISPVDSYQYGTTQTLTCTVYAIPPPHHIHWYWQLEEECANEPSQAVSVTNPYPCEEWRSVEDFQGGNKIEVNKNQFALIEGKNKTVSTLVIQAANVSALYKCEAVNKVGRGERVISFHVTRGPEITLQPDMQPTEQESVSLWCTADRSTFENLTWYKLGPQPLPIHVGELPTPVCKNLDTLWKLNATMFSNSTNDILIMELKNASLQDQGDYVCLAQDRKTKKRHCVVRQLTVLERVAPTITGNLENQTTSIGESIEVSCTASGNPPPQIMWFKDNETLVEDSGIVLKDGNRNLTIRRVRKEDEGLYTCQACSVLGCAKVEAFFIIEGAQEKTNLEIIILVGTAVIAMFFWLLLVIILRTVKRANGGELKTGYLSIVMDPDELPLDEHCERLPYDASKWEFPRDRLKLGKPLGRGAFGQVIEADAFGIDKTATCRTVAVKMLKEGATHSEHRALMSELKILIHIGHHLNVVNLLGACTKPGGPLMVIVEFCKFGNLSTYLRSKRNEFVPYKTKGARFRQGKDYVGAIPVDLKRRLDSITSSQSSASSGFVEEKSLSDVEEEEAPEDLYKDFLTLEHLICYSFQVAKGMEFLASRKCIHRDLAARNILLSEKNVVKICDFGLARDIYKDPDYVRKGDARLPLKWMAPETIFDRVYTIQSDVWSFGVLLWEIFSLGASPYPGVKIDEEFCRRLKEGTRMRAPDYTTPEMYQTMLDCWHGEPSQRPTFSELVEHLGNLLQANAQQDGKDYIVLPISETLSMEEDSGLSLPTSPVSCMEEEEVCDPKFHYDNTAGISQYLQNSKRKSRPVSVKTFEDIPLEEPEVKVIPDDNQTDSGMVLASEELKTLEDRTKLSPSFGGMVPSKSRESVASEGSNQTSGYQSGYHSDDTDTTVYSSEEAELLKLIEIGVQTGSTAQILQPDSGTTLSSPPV

EWQTDNCETCTCYET (cysteine pairing not given here)
dose dependence of inhibition of VEGF-induced VEGFR-2 phosphorylation (HUVEC): dose-dependent | phosphorylation of VEGFR-2 induced by VEGF (serum-starved HUVEC, 300 μg/ml, 24 h): inhibited
